Laboratory results published in patent publication US20220010021A1 (Sanofi, published 2022).
Residue numbers refer to the chain shown, from its start. Values belong to the binder of their own block, whether it stands above or below them.

Legend:
beta-Klotho (KLB) = target: T1, beta-Klotho (KLB) (Homo sapiens (Human), UniProt Q86Z14 1-996); assay: BLI (Octet) off-rate screening, mAb from supernatant on anti-hIgG Fc sensor, 5 nmol/L KLB;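 also: dissociation followed for 1800 s in D-PBS plus 0.1% BSA, antibody supernatants applied at 25 µg/mL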
T1 construct: also called β-Klotho; not shown: C-terminal His tag of the bought R&D Systems protein
T1 sequence: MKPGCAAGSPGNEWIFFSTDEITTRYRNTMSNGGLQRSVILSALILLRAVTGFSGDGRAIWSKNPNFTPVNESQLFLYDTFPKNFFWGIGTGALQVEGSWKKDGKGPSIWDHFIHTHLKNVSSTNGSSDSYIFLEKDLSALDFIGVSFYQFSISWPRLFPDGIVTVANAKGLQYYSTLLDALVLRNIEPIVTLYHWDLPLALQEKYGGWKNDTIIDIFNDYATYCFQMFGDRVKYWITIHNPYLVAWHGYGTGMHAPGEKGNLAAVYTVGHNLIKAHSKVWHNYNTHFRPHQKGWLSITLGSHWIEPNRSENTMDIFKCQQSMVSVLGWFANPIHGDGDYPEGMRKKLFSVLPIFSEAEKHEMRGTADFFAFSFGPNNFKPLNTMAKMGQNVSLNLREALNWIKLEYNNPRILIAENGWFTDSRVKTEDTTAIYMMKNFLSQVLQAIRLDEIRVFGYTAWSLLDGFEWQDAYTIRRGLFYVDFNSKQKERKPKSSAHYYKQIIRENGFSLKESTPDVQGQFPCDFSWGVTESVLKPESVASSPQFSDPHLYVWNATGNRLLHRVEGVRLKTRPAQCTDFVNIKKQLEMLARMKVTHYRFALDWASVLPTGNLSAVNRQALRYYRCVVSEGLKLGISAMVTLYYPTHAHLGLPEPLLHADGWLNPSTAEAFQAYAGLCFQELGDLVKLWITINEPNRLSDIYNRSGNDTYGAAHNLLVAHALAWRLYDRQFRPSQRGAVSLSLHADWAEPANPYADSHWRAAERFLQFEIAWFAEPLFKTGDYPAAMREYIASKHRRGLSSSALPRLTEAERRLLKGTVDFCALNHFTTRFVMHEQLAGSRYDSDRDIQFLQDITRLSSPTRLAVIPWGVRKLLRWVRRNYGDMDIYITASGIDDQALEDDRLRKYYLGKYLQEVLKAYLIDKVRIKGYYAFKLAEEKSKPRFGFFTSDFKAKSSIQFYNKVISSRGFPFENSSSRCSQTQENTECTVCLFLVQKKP

[1] = target: cell surface receptor composed of the tyrosine kinase receptor FGFR1c and co-receptor beta-Klotho (KLB) (human, UniProt P11362 22-822; Q86Z14 1-1044); assay: cell-based or functional assay
Chain of cell surface receptor composed of the tyrosine kinase receptor FGFR1c and co-receptor beta-Klotho (KLB) (P11362 22-822, one chain of several): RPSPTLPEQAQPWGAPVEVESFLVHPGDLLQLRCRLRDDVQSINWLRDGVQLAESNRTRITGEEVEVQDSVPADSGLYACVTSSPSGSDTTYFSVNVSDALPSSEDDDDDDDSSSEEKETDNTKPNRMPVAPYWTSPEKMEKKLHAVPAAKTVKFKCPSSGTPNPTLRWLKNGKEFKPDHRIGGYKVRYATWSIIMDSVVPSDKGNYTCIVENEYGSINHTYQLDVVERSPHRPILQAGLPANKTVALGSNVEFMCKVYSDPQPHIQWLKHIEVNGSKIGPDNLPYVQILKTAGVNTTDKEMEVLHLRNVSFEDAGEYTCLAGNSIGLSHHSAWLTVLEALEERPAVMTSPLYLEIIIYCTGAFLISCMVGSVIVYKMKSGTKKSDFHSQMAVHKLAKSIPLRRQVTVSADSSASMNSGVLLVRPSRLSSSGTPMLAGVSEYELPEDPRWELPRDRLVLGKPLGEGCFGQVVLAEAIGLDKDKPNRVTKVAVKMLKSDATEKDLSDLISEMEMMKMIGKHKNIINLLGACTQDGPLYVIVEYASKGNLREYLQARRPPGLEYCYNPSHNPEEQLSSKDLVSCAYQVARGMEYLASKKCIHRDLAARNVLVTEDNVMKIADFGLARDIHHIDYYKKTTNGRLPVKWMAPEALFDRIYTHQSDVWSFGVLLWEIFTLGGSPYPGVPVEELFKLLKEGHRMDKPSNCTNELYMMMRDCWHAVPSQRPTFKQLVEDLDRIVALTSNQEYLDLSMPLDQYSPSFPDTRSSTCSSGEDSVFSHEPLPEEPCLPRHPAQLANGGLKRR

koff (beta-Klotho (KLB)): 3.4e-05 s⁻¹ | Mean E max, Luciferase gene reporter assay [1]: 101% | Mean EC50, Luciferase gene reporter assay [1]: 0.105 nM
B1: 16H7 variant with light chain substitution N93S (antibody, human IgG4 S228P, lambda, V domains shown)
VH: not shown
VL: SYVLTQPPSVSVAPGQTARITCGGNNIGSESVHWYQQKPGQAPVLVVYDDSDRPSGIPERFSGSNSGNTATLTISRVEAGDEADYYCQVWDGSSDHVVFGGGTKLTVLG
notes: IgG4 backbone was used

koff (beta-Klotho (KLB)): 6.2e-05 s⁻¹ | Mean E max, Luciferase gene reporter assay [1]: 100% | Mean EC50, Luciferase gene reporter assay [1]: 0.098 nM
B2: 16H7 variant with light chain substitution S94Y (antibody, human IgG4 S228P, lambda, V domains shown)
VH: not shown
VL: B1 VL with S93N, S94Y
notes: IgG4 backbone was used

koff (beta-Klotho (KLB)): 1e-07 s⁻¹ | Mean E max, Luciferase gene reporter assay [1]: 99% | Mean EC50, Luciferase gene reporter assay [1]: 0.138 nM
B3: 16H7 variant with light chain substitution S94C (antibody, human IgG4 S228P, lambda, V domains shown)
VH: not shown
VL: B1 VL with S93N, S94C
notes: IgG4 backbone was used

koff (beta-Klotho (KLB)): 5.9e-05 s⁻¹ | Mean E max, Luciferase gene reporter assay [1]: 110% | Mean EC50, Luciferase gene reporter assay [1]: 0.129 nM
B4: 16H7 variant with light chain substitution V97L (antibody, human IgG4 S228P, lambda, V domains shown)
VH: not shown
VL: B1 VL with S93N, V97L
notes: IgG4 backbone was used

koff (beta-Klotho (KLB)): 3.3e-05 s⁻¹ | Mean E max, Luciferase gene reporter assay [1]: 103% | Mean EC50, Luciferase gene reporter assay [1]: 0.214 nM
B5: 16H7 variant with light chain substitution V97M (antibody, human IgG4 S228P, lambda, V domains shown)
VH: not shown
VL: B1 VL with S93N, V97M
notes: IgG4 backbone was used

koff (beta-Klotho (KLB)): 1.7e-05 s⁻¹ | Mean E max, Luciferase gene reporter assay [1]: 110% | Mean EC50, Luciferase gene reporter assay [1]: 0.12 nM
B6: 16H7 variant with light chain substitution V97I (antibody, human IgG4 S228P, lambda, V domains shown)
VH: not shown
VL: B1 VL with S93N, V97I
notes: IgG4 backbone was used

koff (beta-Klotho (KLB)): 4.3e-05 s⁻¹ | Mean E max, Luciferase gene reporter assay [1]: 103% | Mean EC50, Luciferase gene reporter assay [1]: 0.159 nM
B7: 16H7 variant with light chain substitution S94W (antibody, human IgG4 S228P, lambda, V domains shown)
VH: not shown
VL: B1 VL with S93N, S94W
notes: IgG4 backbone was used

koff (beta-Klotho (KLB)): 3.1e-05 s⁻¹ | Mean E max, Luciferase gene reporter assay [1]: 103% | Mean EC50, Luciferase gene reporter assay [1]: 0.161 nM
B8: 16H7 variant with light chain substitution N93T (antibody, human IgG4 S228P, lambda, V domains shown)
VH: not shown
VL: B1 VL with S93T
notes: IgG4 backbone was used

koff (beta-Klotho (KLB)): 7.2e-05 s⁻¹ | Mean E max, Luciferase gene reporter assay [1]: 108% | Mean EC50, Luciferase gene reporter assay [1]: 0.114 nM
B9: 16H7 variant with light chain substitution V98M (antibody, human IgG4 S228P, lambda, V domains shown)
VH: not shown
VL: B1 VL with S93N, V98M
notes: IgG4 backbone was used

koff (beta-Klotho (KLB)): 0.00033 s⁻¹ | Mean E max, Luciferase gene reporter assay [1]: 95% | Mean EC50, Luciferase gene reporter assay [1]: 0.206 nM
B10: 16H7 variant with light chain substitution V97N (antibody, human IgG4 S228P, lambda, V domains shown)
VH: not shown
VL: B1 VL with S93N, V97N
notes: IgG4 backbone was used

koff (beta-Klotho (KLB)): 4.3e-05 s⁻¹ | Mean E max, Luciferase gene reporter assay [1]: 106% | Mean EC50, Luciferase gene reporter assay [1]: 0.126 nM
B11: 16H7 variant with light chain substitution S94I (antibody, human IgG4 S228P, lambda, V domains shown)
VH: not shown
VL: B1 VL with S93N, S94I
notes: IgG4 backbone was used

koff (beta-Klotho (KLB)): 6.4e-05 s⁻¹ | Mean E max, Luciferase gene reporter assay [1]: 100% | Mean EC50, Luciferase gene reporter assay [1]: 0.105 nM
B12: 16H7 variant with light chain substitution V98C (antibody, human IgG4 S228P, lambda, V domains shown)
VH: not shown
VL: B1 VL with S93N, V98C
notes: IgG4 backbone was used

koff (beta-Klotho (KLB)): 0.00023 s⁻¹ | Mean E max, Luciferase gene reporter assay [1]: 104% | Mean EC50, Luciferase gene reporter assay [1]: 0.19 nM
B13: 16H7 variant with light chain substitution V97C (antibody, human IgG4 S228P, lambda, V domains shown)
VH: not shown
VL: B1 VL with S93N, V97C
notes: IgG4 backbone was used

koff (beta-Klotho (KLB)): 3.2e-05 s⁻¹ | Mean E max, Luciferase gene reporter assay [1]: 109% | Mean EC50, Luciferase gene reporter assay [1]: 0.116 nM
B14: 16H7 variant with light chain substitution S94T (antibody, human IgG4 S228P, lambda, V domains shown)
VH: not shown
VL: B1 VL with S93N, S94T
notes: IgG4 backbone was used

koff (beta-Klotho (KLB)): 1.2e-05 s⁻¹ | Mean E max, Luciferase gene reporter assay [1]: 101% | Mean EC50, Luciferase gene reporter assay [1]: 0.117 nM
B15: 16H7 variant with light chain substitution S94M (antibody, human IgG4 S228P, lambda, V domains shown)
VH: not shown
VL: B1 VL with S93N, S94M
notes: IgG4 backbone was used

koff (beta-Klotho (KLB)): 1.6e-05 s⁻¹ | Mean E max, Luciferase gene reporter assay [1]: 102% | Mean EC50, Luciferase gene reporter assay [1]: 0.161 nM
B16: 16H7 variant with light chain substitution V98F (antibody, human IgG4 S228P, lambda, V domains shown)
VH: not shown
VL: B1 VL with S93N, V98F
notes: IgG4 backbone was used

koff (beta-Klotho (KLB)): 2.1e-05 s⁻¹ | Mean E max, Luciferase gene reporter assay [1]: 112% | Mean EC50, Luciferase gene reporter assay [1]: 0.111 nM
B17: 16H7 variant with light chain substitution V98N (antibody, human IgG4 S228P, lambda, V domains shown)
VH: not shown
VL: B1 VL with S93N, V98N
notes: IgG4 backbone was used

koff (beta-Klotho (KLB)): 4.6e-05 s⁻¹ | Mean E max, Luciferase gene reporter assay [1]: 99% | Mean EC50, Luciferase gene reporter assay [1]: 0.107 nM
B18: 16H7 variant with light chain substitution S94A (antibody, human IgG4 S228P, lambda, V domains shown)
VH: not shown
VL: B1 VL with S93N, S94A
notes: IgG4 backbone was used

koff (beta-Klotho (KLB)): 3.3e-05 s⁻¹ | Mean E max, Luciferase gene reporter assay [1]: 116% | Mean EC50, Luciferase gene reporter assay [1]: 0.105 nM
B19: 16H7 variant with light chain substitution V98I (antibody, human IgG4 S228P, lambda, V domains shown)
VH: not shown
VL: B1 VL with S93N, V98I
notes: IgG4 backbone was used

koff (beta-Klotho (KLB)): 5.7e-05 s⁻¹ | Mean E max, Luciferase gene reporter assay [1]: 104% | Mean EC50, Luciferase gene reporter assay [1]: 0.123 nM
B20: 16H7 variant with light chain substitution S94R (antibody, human IgG4 S228P, lambda, V domains shown)
VH: not shown
VL: B1 VL with S93N, S94R
notes: IgG4 backbone was used

koff (beta-Klotho (KLB)): 4e-05 s⁻¹ | Mean E max, Luciferase gene reporter assay [1]: 108% | Mean EC50, Luciferase gene reporter assay [1]: 0.139 nM
B21: 16H7 variant with light chain substitution N93V (antibody, human IgG4 S228P, lambda, V domains shown)
VH: not shown
VL: B1 VL with S93V
notes: IgG4 backbone was used

koff (beta-Klotho (KLB)): 3.3e-05 s⁻¹ | Mean E max, Luciferase gene reporter assay [1]: 103% | Mean EC50, Luciferase gene reporter assay [1]: 0.133 nM
B22: 16H7 variant with light chain substitution S94N (antibody, human IgG4 S228P, lambda, V domains shown)
VH: not shown
VL: B1 VL with S93N, S94N
notes: IgG4 backbone was used

koff (beta-Klotho (KLB)): 2.8e-05 s⁻¹ | Mean E max, Luciferase gene reporter assay [1]: 108% | Mean EC50, Luciferase gene reporter assay [1]: 0.119 nM
B23: 16H7 variant with light chain substitution S94V (antibody, human IgG4 S228P, lambda, V domains shown)
VH: not shown
VL: B1 VL with S93N, S94V
notes: IgG4 backbone was used

koff (beta-Klotho (KLB)): 1.4e-05 s⁻¹ | Mean E max, Luciferase gene reporter assay [1]: 100% | Mean EC50, Luciferase gene reporter assay [1]: 0.122 nM
B24: 16H7 variant with light chain substitution S94E (antibody, human IgG4 S228P, lambda, V domains shown)
VH: not shown
VL: B1 VL with S93N, S94E
notes: IgG4 backbone was used

koff (beta-Klotho (KLB)): 6.5e-05 s⁻¹ | Mean E max, Luciferase gene reporter assay [1]: 105% | Mean EC50, Luciferase gene reporter assay [1]: 0.108 nM
B25: 16H7 variant with light chain substitution N93Y (antibody, human IgG4 S228P, lambda, V domains shown)
VH: not shown
VL: B1 VL with S93Y
notes: IgG4 backbone was used

koff (beta-Klotho (KLB)): 3.4e-05 s⁻¹ | Mean E max, Luciferase gene reporter assay [1]: 103% | Mean EC50, Luciferase gene reporter assay [1]: 0.122 nM
B26: 16H7 variant with light chain substitution S94D (antibody, human IgG4 S228P, lambda, V domains shown)
VH: not shown
VL: B1 VL with S93N, S94D
notes: IgG4 backbone was used

koff (beta-Klotho (KLB)): 7.3e-05 s⁻¹ | Mean E max, Luciferase gene reporter assay [1]: 89% | Mean EC50, Luciferase gene reporter assay [1]: 0.131 nM
B27: 16H7 variant with light chain substitution V98P (antibody, human IgG4 S228P, lambda, V domains shown)
VH: not shown
VL: B1 VL with S93N, V98P
notes: IgG4 backbone was used

koff (beta-Klotho (KLB)): 4.4e-05 s⁻¹ | Mean E max, Luciferase gene reporter assay [1]: 103% | Mean EC50, Luciferase gene reporter assay [1]: 0.169 nM
B28: 16H7 variant with light chain substitution S94L (antibody, human IgG4 S228P, lambda, V domains shown)
VH: not shown
VL: B1 VL with S93N, S94L
notes: IgG4 backbone was used

koff (beta-Klotho (KLB)): 0.0001 s⁻¹ | Mean E max, Luciferase gene reporter assay [1]: 99% | Mean EC50, Luciferase gene reporter assay [1]: 0.142 nM
B29: 16H7 variant with light chain substitution V97T (antibody, human IgG4 S228P, lambda, V domains shown)
VH: not shown
VL: B1 VL with S93N, V97T
notes: IgG4 backbone was used

koff (beta-Klotho (KLB)): 3.7e-05 s⁻¹ | Mean E max, Luciferase gene reporter assay [1]: 111% | Mean EC50, Luciferase gene reporter assay [1]: 0.121 nM
B30: 16H7 variant with light chain substitution V98Q (antibody, human IgG4 S228P, lambda, V domains shown)
VH: not shown
VL: B1 VL with S93N, V98Q
notes: IgG4 backbone was used

koff (beta-Klotho (KLB)): 2.1e-05 s⁻¹ | Mean E max, Luciferase gene reporter assay [1]: 45% | Mean EC50, Luciferase gene reporter assay [1]: 3.02 nM
B31: 16H7 variant with light chain substitution V97F (antibody, human IgG4 S228P, lambda, V domains shown)
VH: not shown
VL: B1 VL with S93N, V97F
notes: IgG4 backbone was used

koff (beta-Klotho (KLB)): 1e-07 s⁻¹ | Mean E max, Luciferase gene reporter assay [1]: 100% | Mean EC50, Luciferase gene reporter assay [1]: 0.132 nM
B32: 16H7 variant with light chain substitution S94F (antibody, human IgG4 S228P, lambda, V domains shown)
VH: not shown
VL: B1 VL with S93N, S94F
notes: IgG4 backbone was used
